Data taken from a protein production outcome set (Wang et al. 2014).

Experiment: label from the status in PepcDB records

| Sequence | protein production |
| --- | --- |
| MEVKVQSDDLEYVVSTVRSYINSYETDVNPLYIRFYFFESDNPLLDENFDEIRKILVPSGYIPAVIKGPENYIEVTRRPKENYRSIYVNIIMLVLTLLSTVYVGSIYAASFVRPGPYYEFYKLLYGFVFFSLPLMFILGIHETAHYLVARRYRVNASLPFFIPFPYIIGTFGAFVSLRDPIPDRKAMTEIGAAGPIAGFLASIPLMFLAQYFEKVIKPVNNVIPFQLNYPLIYKLFGIFEPVKVPVFPMVFAVWVGIFATAMNLIPAGQLDGGHIVRGLLGSRAYILNYIFLGFLFYLAIVYNYLGWLFLALFVIFLGLVHPPALNDYARIKMRDVFIGIFCLLMFIITFTPLPIKP | failed |
| MEVLRYRSRPIVGGEAEGPAVVIDSLSFYGEVDPETGVTSGGKPLAGRVAAIRRSRGSTVGSYVIYALKENGVAPLAILMERAEPIVIAGCVLAGIPLYDGLPPEFFERVRDGYRVRVHSDGLVEVLGPGQP | failed |
| MEVQETRVQTDRVLTIPNILSMARLVGVPVFLWLILRPEFGGPKSDGWALLVLALSGISDYLDGKLARRWNQISSLGRLLDPAADRLYILSTLVGLTWREILPIWLTAALLARELVLLVMVGILRRHGYPPPQVNFLGKAATFNLMYAFPLLLLSDSSGWIGSLAAIFGWAFAGWGTTLYWWAGVLYMVQVRRLVRADAVAD | failed |
| MEVSRALLFELGVLLAVLAVLGAVARRFALSPIPVYLLAGLSLGNGGILGVAAAGEFIATGAPIGVVLLLLALGLEFSATEFASSLRHHLPSAGVDIVLNATPGAVAGWLLGLDGVAILGLAGVTYISSSGVIARLLEDLRRLGNRETPAVLSVLVLEDFAMAAYLPLFAVLATDGSWLEAVVGMTVAIAALLGAFAASYRWGHHVGRLVTHPDSEQLLLRVLGITLIVAAVAESLHASAAVGAFLVGLTLTGETADRARMVLTPLRDLFATIFFLGIGLSVDPGKLVSMLPVALALAAVTAATKVATGMFAARREGVARRGQLRAGTALVARGEFSLIIIGLAGASIPGVAALATAYVFVMAIVGPILARYTGGGLPAAAVASN | failed |
| MEVVRIPEFKEKTAPGAYYQQPAIDGSRPGRFYANLFDIKATPKYGMRTLAYHEGIPGHHFQVAVAMELEGQPLIRKMAPFTAYIEGWALYSERVAWELGFQQDPFDNIGRLQAELFRAVRLVVDTGIHHSRWTREQAIDYMKKNTGMSDRDVTAEIERYIVMPGQATAYKVGMMKILELREKAKQALGDKFDLRDFHDVVLKNGAVPLDILEKLVDRYIADKR | failed |
| MEWLNEPPNWSHSDQKIIVTTSPKTDFWRITHYGFIRDSGHFYFDRVSTDFVVDVKIKGNYKDLYDQAGIMIRADEQHWIKTGIEYVDGVQNLSAVVTHNYSDWSFTPLLNPPNIFQVRVERCQEAIHIAYLDEYSRYVPFRMAYFPVALDIQVGIMCASPQGNGYEVIFEDYQLTKKGEKLSLEHHHHHH | failed |
| MEWQAEQAYNHLPPLPLDSKLAELAETLPILKACIPARAALAELKQAGELLPNQGLLINLLPLLEAQGSSEIENIVTTTDKLFQYAQEDSQADPMTKEALRYRTALYQCFTQLSNRPLCVTTALEICSTIKSVQMDVRKVPGTSLTNQATGEVIYTPPAGESVIRDLLSNWEAFLHNQDDVDPLIKMAMAHYQFEAIHPFIDGNGRTGRVLNILYLIDQQLLSAPILYLSRYIVAHKQDYYRLLLNVTTQQEWQPWIIFILNAVEQTAKWTTHKIAAARELIAHTTEYVRQQLPKIYSHELVQVIFEQPYCRIQNLVESGLAKRQTASVYLKQLCDIGVLEEVQSGKEKLFVHPKFVTLMTKDSNQFSRYAL | not failed |
| MEYELLIREAEPKDAAELVAFLNRVSLETDFTSLDGDGILLTSEEMEIFLNKQASSDNQITLLAFLNGKIAGIVNITADQRKRVRHIGDLFIVIGKRYWNNGLGSLLLEEAIEWAQASGILRRLQLTVQTRNQAAVHLYQKHGFVIEGSQERGAYIEEGKFIDVYLMGKLIG | not failed |
| MEYFLPLISIVTISYNAVNLIEKTILSVVEQDTADFEYIVIDGGSTDGTVEVIRKYENAISYWVSESDKGIFDAMNKALSVAKGDWVIFMNSGDCFYNNHVLSEIAIYMKDEETELIYGDVNLFSGKRNFIFKQRVSGININLNSVCHQTVFIRRKLHPYFDVRYKLTADHDIIFDFIKRGQYIHANIVIAKVLLGGVSHDVIKTSLEKLLISYRKGTFMDLLLSPLCNIYQVIKYFVKKLLISALPIELFNKMSRMKSKMESNFLEHHHHHH | not failed |
| MEYGFWLPIFGGWLRNVNDESMPPTFEYAKQTAQAAEQLGFSTTLIAELNLNDIKGVSAPSLEAWTTAAALAAVTDRLEIMTAVRPGFHNPAVTAKMAANIDQLSNGRFTLNVVSAWWEEEAKQYGGVFTAHDERYDRTEEFVTILKGLWKEEEFSYKGNFYELHHTHLSPKPVQKQGIKLYAGGESKRGKEVIVNHADAYVMHGGTVEEVSVKIEDMKNRRKKVTEEPLQSFGLAAYVICRHTEEEALEEWRRITDVKDDALGYAGYQDFVSKSQLEQQVKLNDYSVSNRGLRPNLIGTPEQIAERILAFEKVGVTLLLLQFSPQLEEMKRFSEKVMPLVEAKRKELIT | not failed |
| MEYKKFVEARRELNEKVLSRGTLNTKRFFNLDSAVYRPGKLDVKTKELMGLVASTVLRCDDCIRYHLVRCVQEGASDEEIFEALDIALVVGGSIVIPHLRRAVGFLEELREMEKNGETISL | not failed |
| MEYNRNFFIAIGLSFGVLIAWHFFYVAPKQTELQQKQLIAQQLLKQQSAVSSPTANFSDSASTHESALIINHPMSPEIRDAELAKTNRVAIKTNELEGSINLVGAQFDDLLLKKYRLTVDKKSSEIALLNPKGFKETYLAEFGFTSSSLSKDALPQSDTRWHIEGNNTTLTPSTPVTLIYNNGQGQTFRRILSIDDHYMFTIEDSITNESDKPIYLSSYARVARAAPPEHTNATYLLHEGMIGIAGDSLKTEKYKTLAELNPNPDNGQKSMTFSKVIGGWVGITDKYWAVAVIPPQDKEYTSRFIYFDRLQTHYQSDLLGSLLTVAPNETKTITNRLFAGAKQVEIINHYQNDLKIKKFALLIDWGWFDFITKPMFSLIDILYKQTGNFGIAILLVTVLLKTLLFPLANKSYKSMARMKLIQPMLLEIKEKYPEDRTKQQQAIIELYKTQKINPLAGCWPMLVQFPIFFALYKVLYITIEMRHAPFFGWIQDLAAPDPTSLFNLFGLLPYTVPAFLMLGAWPLIMGITMFLQMRMNPAPQDQTQAMIFAWMPIVFTFMLASFPVGLVIYWAWNNILSMIQQGIMMKRQGVKIELFDNLKAMWRKSPKKEAHE | failed |
| MEYSFYDFLKLIGSLGLFLYGMKIMSEGLQKVAGDRLRGILTAMTTNRVTGVLTGVLITALIQSSSATTVMVVSFVNAGLLTLAESISVIMGANIGTTVTAWIISIFGFKVDMAAFALPLLAIALPLIFSGKSNRKSIGEFIFGFSFLFMGLSYLKANAPDLNANPEMLAFVQNYTDMGFFSVLLFLFIGTILTMIVQASAATMAITLIMCANGWISLELGAALVLGENIGTTITANLAALTANSQAKRAALAHFVFNVFGVIWVLIIFHPFMVFVNWVVDTFFHPGSAEVAISYKLSAFHSIFNICNVCLLIWGVKLIERTVCAIIRPKEEDEEPRLRFITGGMLSTAELSILQARKEIHLFSERIHRMFGMVQDLLHTEKDDDFNKLFSRIEKYENISDNMELEIANYLNQVSEGRLSSESKLQIRAMLREVTEIESIGDSCYNLARTISRKRQTNQDFTEKQYEHIHFMMKLTNDALSQMIVVVEKPEHQSIDVNKSFNIENEINNYRNQLKNQNILDVNNKEYDYQMGVYYMDIIAECEKLGDYVVNVVEASSDVKEKKAS | failed |
| MEYYNLILYLLVFGADMLIILQTYNEIKMWKTVKGNFVGKVSIIVPIKGIDTRLERNIESLLSQDYPYPYEVIYVVEKGDEVENILKKYNVKIVYSDFNCDSCSGKIRAQISGLLRASNDIIVFADSDTWYPRYWLRNLISPLDKYDTTTTFSWPFPSRITLSNLIRAGFWTLGFESQSLQSSRFLWGGSMALRREFFDNEVLDELSKEWCDDCTLTRIIKRRGGKIGFVMSAIPLNVYDENSLISWSSRQIITILAYSPRGARAYLVAGTFFALILIYSLVYLNIVTFTPYILWIVKNVIRGVKYPKQALIASLMTILAIPYALFLLVFNWNRREVYWRGKRYIVKPLREK | failed |
| MFAAAVSFVALLLFTIGLYGVMTSRVGIKMLISIEIMINSAILSIIGIGSYFYSSSVQIDPYVFALFAIAIGVVESAVGLGLLVIVYRKFGKIDISLLKEIRW | failed |
| MFAHQNASFPPRPEGRGGKEAVFRLTVFCIITFSSLICEAMKRAYKYRFYPTTEQAELLAQTFGCVRFVYNSILRWRTDAYYERKEKIGYLQANARLTALKKEPEFAWLNDVSCVPLQQSLRHQQTAFANFFAGRAAYPAFKSKRHKQAAEFTASAFKYRDGKLYMAKNKIPLDVRWSRPLPSVPSTVTISKDAAGRYFVSCLCEFEPASLPITSSMVGIDVGLKDLFVTDTGFRSGNPRHTAKYAARLALLQRRLSKKAKGSKNRAKAHLKVARLHAKIADCRLDALHKATRKLINDNQVVCVESLKVRNMIRNPSLSKAIADASWGELVRQLRYKGEWAGRSVVAIDQFFPSSKRCSCCGFIMKKMPLDVRKWQCPECGTDHDRDVNAARNIKAAGLAVLAHGEPVNPESLKAALEHHHHHH | failed |
| MFALCDVNAFYASCETVFRPDLWGKPVVVLSNNDGCVIARNAEAKALGVKMGDPWFKQKDLFRRCGVVCFSSNYELYADMSNRVMSTLEELSPRVEIYSIDEAFCDLTGVRNCRDLTDFGREIRATVLQRTHLTVGVGIAQTKTLAKLANHAAKKWQRQTGGVVDLSNLERQRKLMSALPVDDVWGIGRRISKKLDAMGIKTVLDLADTDIRFIRKHFNVVLERTVRELRGEPCLQLEEFAPTKQEIICSRSFGERITDYPSMRQAICSYAARAAEKLRSEHQYCRFISTFIKTSPFALNEPYYGNSASVKLLTPTQDSRDIINAATRSLDAIWQAGHRYQKAGVMLGDFFSQGVAQLNLFDDNAPRPGSEQLMTVMDTLNAKEGRGTLYFAGQGIQQQWQMKRAMLSPRYTTRSSDLLRVK | failed |
| MFALEELPRIPDFTERAICELFELYASIESVQLPPQSSDATNSSSATAPGNIFSAERGPRYLGPRALVRFFTELGVDMRSLAALAFAWLGRWQYPCHCREEGFARGVRYALWALDRRQHNEPRRWEQVQATCSTLLETSIWPRESTALFERLRSAFPDAVLSYTQRSAEAALDFYLFAFDLNRQSPYRRSLSLTDARYLWKQFLSESCYLATPASPGTPAGVANQPWRYLEHFDAYLESRCGMAGTIISRDTWYWVLMFARETQVAGSSFFANYNQGDAWPVLLDGFVEYLRENKLLSS | not failed |
| MFALVLAAGRSRRFDGDKRKALLPCGRTLLTACLETAGKVFTETGVVLREDDEVQTLGIPSKVTIIRCKHADLGMGHSLAAGIAAALNSSADAVAILLADMPWIEPQTLRDLARLADPQRIALPMHEGQRGHPVIIGRRFWPRLLALEGDQGAKALITNNPAFCDVMNCDDPGVLRDADTRSALAIACRQHLTAGRDLEHHHHHH | failed |
| MFANKILTEKDTDQIRFSILASGSSGNATLVETGDQKILIDCGLSGKKMEGLFAQVGRDMNDLDAILITHEHSDHIKGLGVLARKYKLPIYANAKTWKAMDNMIGEVSSDQKFQFDMETVKNFGSMQVESFGVSHDAIEPMFYIFHKGNKKFVMITDTGYVSDRMKGHIAGADAYLFESNHDVEMLRMGRYPWNVKRRILGDEGHVSNEDAAIAMSEVITDQTKRIYLGHLSKDNNMKELARMSVTQTLMAEGIDVGGKLEIFDTDPDNATSIFTILEHHHHHH | failed |
